Data on one variant can be found in IntAct's records for PubMed 19204291.

To fix the notation:
B1: Programmed cell death protein 4 (Homo sapiens), Q53EL6 (parent)
chain: MDVENEQILNVNPADPDNLSDSLFSGDEENAGTEEIKNEINGNWISASSINEARINAKAKRRLRKNSSRDSGRGDSVSDSGSDALRSGLTVPTSPKGRLLDRRSRSGKGRGLPKKGGAGGKGVWGTPGQVYDVEEVDVKDPNYDDDQENCVYETVVLPLDERAFEKTLTPIIQEYFEHGDTNEVAEMLRDLNLGEMKSGVPVLAVSLALEGKASHREMTSKLLSDLCGTVMSTTDVEKSFDKLLKDLPELALDTPRAPQLVGQFIARAVGDGILCNTYIDSYKGTVDCVQARAALDKATVLLSMSKGGKRKDSVWGSGGGQQSVNHLVKEIDMLLKEYLLSGDISEAEHCLKELEVPHFHHELVYEAIIMVLESTGESTFKMILDLLKSLWKSSTITVDQMKRGYERIYNEIPDINLDVPHSYSVLERFVEECFQAGIISKQLRDLCPSRGRKRFVSEGDGGRLKPESY

Variants of B1 are the subject of the assay. To be noted: with if4a1_human EIF4A1, P60842.
Sequence of if4a1_human EIF4A1, P60842 (P60842 whole entry): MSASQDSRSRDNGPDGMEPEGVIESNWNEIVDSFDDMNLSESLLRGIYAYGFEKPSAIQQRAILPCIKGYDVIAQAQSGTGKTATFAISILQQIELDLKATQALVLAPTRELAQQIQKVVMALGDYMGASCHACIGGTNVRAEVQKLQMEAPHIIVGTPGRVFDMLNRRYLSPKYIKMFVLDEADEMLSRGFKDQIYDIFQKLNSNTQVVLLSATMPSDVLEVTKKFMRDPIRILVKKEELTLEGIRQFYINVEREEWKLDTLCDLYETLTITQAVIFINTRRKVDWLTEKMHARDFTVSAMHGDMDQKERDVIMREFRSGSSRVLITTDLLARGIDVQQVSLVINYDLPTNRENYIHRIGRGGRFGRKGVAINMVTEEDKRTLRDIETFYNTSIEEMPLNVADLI
Regarding E249A;D253A;D414A;D418A, the “effect of a mutation on the interaction” value was “disrupting interaction strength”.
